In EP4361176A1 (CHUGAI SEIYAKU KABUSHIKI KAISHA, dated 2024):
Residue numbers refer to the chain shown, from its start. Numbers in names are those of the source.

T1: hFcyRIIaH on hFcyRIIaH-expressing Jurkat cells (human, UniProt P12318 34-317)
T1 sequence (looked up): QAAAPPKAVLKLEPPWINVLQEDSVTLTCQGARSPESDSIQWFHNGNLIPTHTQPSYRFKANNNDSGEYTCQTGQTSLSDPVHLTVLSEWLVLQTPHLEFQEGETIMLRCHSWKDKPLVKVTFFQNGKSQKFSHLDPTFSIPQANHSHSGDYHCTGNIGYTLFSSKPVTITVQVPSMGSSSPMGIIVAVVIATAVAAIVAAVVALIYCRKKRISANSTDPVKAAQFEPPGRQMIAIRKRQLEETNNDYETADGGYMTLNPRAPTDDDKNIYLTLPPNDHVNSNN

T2: human FcγRIIa H extracellular domain (human, UniProt P12318 34-217)
T2 construct: extracellular domain; Made by the method of WO2014104165; also called hFcγR IIa H; FcyRIIaH
T2 sequence (looked up): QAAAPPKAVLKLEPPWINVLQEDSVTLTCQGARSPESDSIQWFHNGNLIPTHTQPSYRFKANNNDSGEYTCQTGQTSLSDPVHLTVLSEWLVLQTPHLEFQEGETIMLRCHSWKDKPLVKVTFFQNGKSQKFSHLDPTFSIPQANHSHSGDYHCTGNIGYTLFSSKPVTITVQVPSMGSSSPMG

B1: H240-Kn496/L73-k0//H240-Hl516/L73-k0 (antibody, human IgG1, kappa)
heavy 1: QDQLVQSGAEVKKPGASVKVSCKASGFNIKDTYIQWVRQAPGQGLEWMGRIDPLRKQTKYREKFEGRVTITADTSTNTAYMELSSLRSEDTAVYYCVRSGREFDYWGQGTLVTVSSASTKGPSVFPLAPSSKSTSGGTAALGCLVKDYFPEPVTVSWNSGALTSGVHTFPAVLQSSGLYSLSSVVTVPSSSLGTQTYICNVNHKPSNTKVDKKVEPKSCDKTHTCPPCPAPEFQWGPMVFLFPPKPKDVLMISRTPEVTCVVVDVSDEEPEVKFNWYVDGVEVHNAKTKPREEQYNATYRVVSVLPVLHQDWLNGKEYKCKVSNKALPAPIEKTISKAKGQPREPQVCTLPPSRDELTKNQVSLWCLVKGFYPSDIAVEWESNGQPENNYKTTPPVLDSDGSFFLYSKLTVDKSRWQQGNVFSCSVMHEALHNHYTQKSLSLSP
heavy 2: QDQLVQSGAEVKKPGASVKVSCKASGFNIKDTYIQWVRQAPGQGLEWMGRIDPLRKQTKYREKFEGRVTITADTSTNTAYMELSSLRSEDTAVYYCVRSGREFDYWGQGTLVTVSSASTKGPSVFPLAPSSKSTSGGTAALGCLVKDYFPEPVTVSWNSGALTSGVHTFPAVLQSSGLYSLSSVVTVPSSSLGTQTYICNVNHKPSNTKVDKKVEPKSCDKTHTCPPCPAPELLGGPSVFLFPPKPKDVLMISRTPEVTCVVVDVSHEEPEVKFNWYVDGVEVHNAKTKPREEQYNATYRVVSVLPVLHQDWLNGKEYKCKVSNDALPAPIEETISKAKGQPREPQVYTLPPSRCELTKNQVSLSCAVKGFYPSDIAVEWESNGQPENNYKTTPPVLDSDGSFFLVSKLTVDKSRWQQGNVFSCSVMHEALHNHYTQKSLSLSP
light: DIQMTQSPSSLSASVGDRVTITCRASQDIHKYIAWYQQKPGQAPRLLIQYTSTLQPGVPSRFSGSGSGTDYTFTISSLQPEDIATYYCLQYEQLRTFGGGTKVEIKRTVAAPSVFIFPPSDEQLKSGTASVVCLLNNFYPREAKVQWKVDNALQSGNSQESVTEQDSKDSTYSLSSTLTLSKADYEKHKVYACEVTHQGLSSPVTKSFNRGEC
notes: also called EGL-ART11; ART11
B2: H240-Kn443/L73-k0//H240-Hl408/L73-k0 (antibody, human IgG1, kappa)
heavy 1: B1 heavy 1 with V249T, P306T, K325D
heavy 2: B1 heavy 2 with G235A, V249T, P306T
light: B1 light
notes: also called EGL-ART3; ART3
B3: H240-Kn462/L73-k0//H240-Hl441/L73-k0 (antibody, human IgG1, kappa)
heavy 1: B1 heavy 1 with K325D
heavy 2: B1 heavy 2 with G235A
light: B1 light
notes: also called EGL-ART5; ART5
B4: H240-GASDALIE/L73-k0 (antibody, human IgG1, kappa)
heavy: QDQLVQSGAEVKKPGASVKVSCKASGFNIKDTYIQWVRQAPGQGLEWMGRIDPLRKQTKYREKFEGRVTITADTSTNTAYMELSSLRSEDTAVYYCVRSGREFDYWGQGTLVTVSSASTKGPSVFPLAPSSKSTSGGTAALGCLVKDYFPEPVTVSWNSGALTSGVHTFPAVLQSSGLYSLSSVVTVPSSSLGTQTYICNVNHKPSNTKVDKKVEPKSCDKTHTCPPCPAPELLAGPDVFLFPPKPKDTLMISRTPEVTCVVVDVSHEDPEVKFNWYVDGVEVHNAKTKPREEQYNSTYRVVSVLTVLHQDWLNGKEYKCKVSNKALPLPEEKTISKAKGQPREPQVYTLPPSRDELTKNQVSLTCLVKGFYPSDIAVEWESNGQPENNYKTTPPVLDSDGSFFLYSKLTVDKSRWQQGNVFSCSVMHEALHNHYTQKSLSLSP
light: B1 light
B5: H240-Kn462/L73-k0//H240-Hl445/L73-k0 (antibody, human IgG1, kappa)
heavy 1: B1 heavy 1 with K325D
heavy 2: B1 heavy 2 with G235A, A329K, I331D
light: B1 light
notes: also called EGL-ART6; ART6
B6: H240-Kn120/L73-k0//H240-Hl068/L73-k0 (antibody, human IgG1, kappa)
heavy 1: B1 heavy 1 with F233Y, Q234Y, V249T, E269D, P306T, A326D
heavy 2: B1 heavy 2 with V249T, A297S, P306T, A329K
light: B1 light
notes: also called EGL-ART2; ART2
B7: H240-Kn456/L73-k0//H240-Hl446/L73-k0 (antibody, human IgG1, kappa)
heavy 1: B1 heavy 1 with A329M, I331E
heavy 2: B1 heavy 2 with G235A, A329M, I331E
light: B1 light
notes: also called EGL-ART4; ART4
B8: H240-Kn125/L73-k0//H240-Hl076/L73-k0 (antibody, human IgG1, kappa)
heavy 1: B1 heavy 1 with F233Y, V249T, P306T
heavy 2: B1 heavy 2 with V249T, A297S, P306T, A329M
light: B1 light
notes: Heterodimerized anti-human Epiregulin antibody, asymmetric Fc variant; also called EGL-ART1; ART1
B9: H240-Kn461/L73-k0//H240-Hl443/L73-k0 (antibody, human IgG1, kappa)
heavy 1: B1 heavy 1 with K325D, I331E
heavy 2: B1 heavy 2 with G235A, I331E
light: B1 light
notes: also called EGL-ART8; ART8
B10: H240-Kn498/L73-k0//H240-Hl518/L73-k0 (antibody, human IgG1, kappa)
heavy 1: B1 heavy 1 with A329M
heavy 2: B1 heavy 2 with A329M
light: B1 light
notes: also called EGL-ART12; ART12
B11: H240-Kn494/L73-k0//H240-Hl514/L73-k0 (antibody, human IgG1, kappa)
heavy 1: B1 heavy 1 with I331E
heavy 2: B1 heavy 2 with I331E
light: B1 light
notes: '1332E' read as I332E; also called EGL-ART10; ART10

molecular target: T1, hFcyRIIaH on hFcyRIIaH-expressing …; experiment: cell-based or functional assay

Binder	EC50 value (µg/mL), ADCP reporter bioassay (fold induction of luminescence), Hepa1-6/hEREG target cells [µg/mL]
B1	0.0367
B2	0.0158
B3	0.0245
B4	0.0324
B5	0.0192
B6	0.0218
B7	0.0432
B8	0.0353
B9	0.0171
B10	0.085
B11	0.0419

molecular target: hFcyRIIIaV on hFcyRIIIaV-expressing Jurkat cells (human, UniProt P08637 17-254); experiment: cell-based or functional assay
Sequence (P08637 17-254): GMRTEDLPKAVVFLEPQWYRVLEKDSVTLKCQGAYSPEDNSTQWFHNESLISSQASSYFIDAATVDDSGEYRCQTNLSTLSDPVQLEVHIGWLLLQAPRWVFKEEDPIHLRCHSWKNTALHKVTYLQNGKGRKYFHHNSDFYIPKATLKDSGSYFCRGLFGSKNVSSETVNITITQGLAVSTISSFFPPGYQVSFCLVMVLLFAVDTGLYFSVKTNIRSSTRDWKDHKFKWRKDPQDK

Binder	EC50 value (µg/mL), ADCC reporter bioassay (fold induction of luminescence), Hepa1-6/hEREG target cells [µg/mL]
B1	0.000413
B2	0.00153
B3	0.00167
B4	0.00208
B5	0.0015
B6	0.00135
B7	0.000789
B8	0.000716
B9	0.00107
B10	0.000304
B11	0.000107

molecular target: T2, human FcγRIIa H extracellular domain; experiment: SPR; KD for FcγRIIb divided by KD for this FcγR

Binder	A/I ratio (KD for FcγRIIb divided by KD for each FcyR)
B1	63.3
B2	181
B3	240
B4	16.5
B5	307
B6	5.8
B7	65.2
B8	47.4
B9	47.2
B10	60.3
B11	17.3

molecular target: T3, human FcγRIIIa F extracellular domain (human, UniProt P08637 17-208); experiment: SPR; KD for FcγRIIb divided by KD for this FcγR
T3 construct: extracellular domain; Made by the method of WO2014104165; also called hFcγR IIIa F; FcyRIIIaF
T3 sequence (P08637 17-208): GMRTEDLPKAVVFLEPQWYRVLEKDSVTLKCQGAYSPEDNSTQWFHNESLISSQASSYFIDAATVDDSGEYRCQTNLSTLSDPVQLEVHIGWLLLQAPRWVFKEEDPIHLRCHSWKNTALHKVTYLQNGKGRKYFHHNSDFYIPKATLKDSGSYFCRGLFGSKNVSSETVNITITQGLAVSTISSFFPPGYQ

Binder	A/I ratio (KD for FcγRIIb divided by KD for each FcyR)
B1	694
B2	396
B3	399
B4	89.3
B5	976
B6	68.4
B7	9940
B8	4950
B9	2350
B10	4310
B11	3160
